This passage reports Fluorescence results from patent US20230020406A1 (published 2023).

The assay has as its target T1, AA111-228 DNA-binding domain of RXR-alpha (UniProt P19793 111-228).
T1 construct: Bought recombinant protein (Abcam), adsorbed to the plate; also called RXRa-DBD
T1 sequence (looked up): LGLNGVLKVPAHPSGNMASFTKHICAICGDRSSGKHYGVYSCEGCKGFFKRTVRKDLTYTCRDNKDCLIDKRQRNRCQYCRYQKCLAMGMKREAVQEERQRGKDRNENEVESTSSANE
The assay is described as follows: plate assay: 1 ug/well RXRa-DBD adsorbed, 800 ng/well SA488-labelled peptide, fluorometer 485/525 nm. As to the method: Experiment x3A. […] 1 ug/well recombinant RXRa-DBD (Abcam, Cambridge, Mass.) was adsorbed to wells of a 96-well plate for 60 minutes at RT, then blocked with 200 uL 1% BSA in PBS buffer overnight. […] The plate was incubated for 60 min at room temperature, washed and counted in a standard fluorometer (excitation/emission 485/525 nm). Background (buffer alone) was subtracted.

Ends that are not written are not given here. * marks the point of attachment. Biotin = O=C1N[C@H]2[C@H](CS[C@H]2CCCCC(=O)*)N1

B1: immodulator peptide IM3 (peptide)
peptide: Biotin-KKGFYKKKQCRPSKGRKRGFCW
modifications: cysteine pairing not given here; also: complexed with Streptavidin-Alexa 488 conjugate (SA488)
notes: IGFBP-3-derived core; also called 1M3
For B1, the Fluorescence is 6570 fluorescence units (background subtracted).

B2: immodulator peptide IM4 (peptide)
peptide: Biotin-RNGNFHPKQCHPALDGQRGKCW
modifications: cysteine pairing not given here; also: complexed with Streptavidin-Alexa 488 conjugate (SA488)
notes: Synthetic peptide
Turning to B2, the Fluorescence is 27 fluorescence units (background subtracted).

B3: immodulator peptide IM5 (peptide)
peptide: Biotin-RKGFYKRKQCKPSRGRKRGICW
modifications: cysteine pairing not given here; also: complexed with Streptavidin-Alexa 488 conjugate (SA488)
notes: Synthetic peptide; also called 1M5
Regarding B3, the Fluorescence is 6800 fluorescence units (background subtracted).

B4: immodulator peptide IM6 (peptide)
peptide: Biotin-HRGFYRKRQCRSSQGQRRGPCW
modifications: cysteine pairing not given here; also: complexed with Streptavidin-Alexa 488 conjugate (SA488)
notes: Synthetic peptide; also called 1M6
With B4, the Fluorescence is 587 fluorescence units (background subtracted).

B5: immodulator peptide IM2 (peptide)
peptide: Biotin-KHGLYNLKQCKMSLNGQRGECW
modifications: cysteine pairing not given here; also: complexed with Streptavidin-Alexa 488 conjugate (SA488)
notes: Synthetic peptide
As for B5, the Fluorescence was 2 fluorescence units (background subtracted).

B6: immodulator peptide IM1 (peptide)
peptide: Biotin-KNGFYHSRQCETSMDGEAGLCW
modifications: cysteine pairing not given here; also: complexed with Streptavidin-Alexa 488 conjugate (SA488)
notes: Synthetic peptide with an IGFBP-derived core
With B6, the Fluorescence was 670 fluorescence units (background subtracted).
